Experimental data from patent publication US20180021429A1, “ANTICANCER AGENTS OR ANTIMETASTATIC AGENTS USING FSTL1 AND COMBINATION DRUG THEREOF” (PHARMA FOODS INTERNATIONAL CO., LTD., priority 2015, published 2018).
“Also recorded” adds a separate entry of the source.

Columns and labels:
[1] = molecular target: T1, FSTL1 (Homo sapiens, UniProt Q12841); test: Ability of FSTL1-induced MSCs from mouse bone marrow cells to differentiate into adipocytes (Examples 14, 16); type: cell-based; set-up: purchased R&D Systems, Inc. 1694-FN-050; details: Example 16; antibody doses as in Example 15
T1 sequence (Q12841 21-308): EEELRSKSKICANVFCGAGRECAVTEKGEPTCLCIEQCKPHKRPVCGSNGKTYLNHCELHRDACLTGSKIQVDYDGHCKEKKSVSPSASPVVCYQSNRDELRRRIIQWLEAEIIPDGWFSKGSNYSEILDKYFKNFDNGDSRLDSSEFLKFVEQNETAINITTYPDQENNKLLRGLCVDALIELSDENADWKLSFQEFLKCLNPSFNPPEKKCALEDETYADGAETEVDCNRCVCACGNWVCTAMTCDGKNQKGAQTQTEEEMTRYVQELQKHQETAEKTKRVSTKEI
Procedure: The antibody clone (#6-55, #7, […], #13, or #22) was evaluated for its activity by the same testing method as in Example 13. #6-55 was set as a positive control for activity. […] Mouse bone marrow cells were supplemented with FSTL1 and the predetermined concentration of each antibody and cultured for 8 days. 5×10^4 cells/well were separated from each culture system and evaluated for the ability to differentiate into adipocytes using an adipocyte differentiation reagent included in “Mesenchymal Stem Cell Functional Identification Kit (R&D Systems, Inc., Cat. No. SCO10)”. For the evaluation method, the cells were supplemented with the adipocyte differentiation reagent and cultured for 8 days. Then, adipocytes per culture system were counted under a microscope for evaluation. […]
In the same way as in Example 15, mouse bone marrow cells were supplemented with FSTL1 and the predetermined concentration of each antibody and cultured for 8 days. 5×10^4 cells/well were separated from each culture system and evaluated for the ability to differentiate into adipocytes using an adipocyte differentiation reagent included in “Mesenchymal Stem Cell Functional Identification Kit (R&D Systems, Inc., Cat. No. SC010)”. […] Then, adipocytes per culture system were counted under a microscope for evaluation (FIG. 40B). […]

[2] = test system: mouse melanoma B16-F10; test: Mouse melanoma B16-F10 model, subcutaneous and intravenous transplantation (Example 22); type: in vivo; details: intraperitoneal 10 mg/kg on days 3 and 6; FIG. 110
Procedure: The drug efficacy of the anti-FSTL1 antibody was evaluated according to Examples 17 to 20 using other cancer-bearing models of C57BL/6 mice of the same strain as in Snail-positive tumor bone metastasis models. The “mouse melanoma B16-F10” is a parent line of the cell line forced to express Snail, which was transplanted in the bone metastasis models used in the preceding tests.
1. Experiment Group (n=5) • 1. Mouse melanoma B16-F10+control IgG (anti-DNP mAb) • 2. Mouse melanoma B16-F10+anti-FSTL1 mAb (#6-55)
• Day 0: transplantation of tumor cells (1×10^6 cells subcutaneously & 1×10^6 cells intravenously) • Day 3: intraperitoneal administration of the antibody (first dose, corresponding to 200 μg/mouse=10 mg/kg) • Day 6: intraperitoneal administration of the antibody (second dose, corresponding to 200 μg/mouse=10 mg/kg) • Day 15 various immunological assays
• Effects on the growth of subcutaneous tumor (calculation of tumor volume by tumor size measurement): measured 6, 10, and 14 days after tumor implantation (FIG. 110A) • Effects on weight loss (FIG. 110B)

[3] = test system: various human tumor cells; test: Proliferative capacity and invasive capacity of various human tumor cells (Example 26); type: cell-based; details: antibody 5 μg/ml, particularly in a highly metastatic tumor cell line highly expressing Snail, FIG. 114A
Procedure: Specifically, the influence of the anti-FSTL1 antibody on proliferative capacity and invasive capacity was studied using various human tumor cells, regardless of the presence or absence of the expression of Snail or FSTL1. Specifically, the anti-FSTL1 antibody (#6-55, 5 μg/ml) or a control antibody (aHema: mouse chimeric anti-hemagglutinin antibody, 5 μg/ml) was added to systems in which a pancreatic cancer cell line Panc1 (ATCC #CRL-1469), Panc1-snail+ which is a Panc1 cell line forced to express Snail, a pancreatic cancer cell line MIAPaCa (ATCC #CRL-1420), a bone metastatic breast cancer cell line MDA231 (ATCC #HTB-26), and a melanoma cell line Hs294T (ATCC IHTB-140) were each cultured at 1×10^5 cells. After culture for 3 days, the number of cells per culture system was counted to evaluate the proliferative capacity of the cells. The cells (5×10^4 cells) after the counting were further inoculated to Matrigel-coated transwell chamber (Corning Inc. #354480) and cultured for 4 hours. Then, the membranes were removed, and stained and fixed with Crystal Violet fixative. Then, the number of cells that permeated the membranes was counted under a microscope to evaluate the invasive capacity of the cells.

[4] = test system: mouse breast cancer 4T1 cell-transplanted models; test: In vivo breast cancer model (Example 21); set-up: species or system BALB/c mice; details: intraperitoneal 10 mg/kg on days 4 and 7; day 14
Procedure: Procedures and methods of the experiment were basically performed according to Examples 17 to 20 under substantially the same conditions as in the bone metastasis model experiments of Examples 17 to 20. Drug efficacy evaluation was conducted using mouse tumor models other than Snail-positive tumor bone metastasis models. The drug efficacy of the anti-FSTL1 antibody was evaluated using cancer-bearing models of BALB/c mice different in strain from the C57BL/6 mice used in the preceding tests. Changes were made as follows. • Day 0: transplantation of tumor cells (5×10^5 cells subcutaneously & 5×10^5 cells intravenously) Days 4 and 7: intraperitoneal administration of the antibody (10 mg/kg) • Day 14: drug efficacy evaluation (subcutaneous tumor growth)
The tumor volumes of the mice were measured 4, 7, 11, and 14 days after tumor implantation.

B1: #6-55: chicken-mouse chimeric anti-FSTL1 antibody clone; variable regions SEQ ID NO: 783 (light), 785 (heavy) (antibody, V domains shown)
VH: AVTLDESGGGLQTPGGALSLVCKGSGFTFTSVTMQWVRQAPGKGLEWVASVCSGSSTYYAPAVKGRATISRDNGQSTVRLQLSNLRPEDTGTYYCAKIAGRARWSCTSAAYNIDAWGHGTEVIVSS
VL: ASTQPSSVSAIPGETVKITCSGGGNNYGWYQQRSPGSAPVTVIYYNDNRPSNIPSRFSGSTSGSTSTLTITGVQADDEAIYYCGSWDSNTDSGIFGAGTTLTVL
modifications: mouse constant regions
cells differentiating into adipocytes / induction of MSCs having the ability to differentiate into adipocytes [1]: decreased in number by the addition of #6-55 in a dose-dependent manner; also recorded: inhibited by 46-55 in an antibody dose-dependent manner; also recorded: inhibited by #6-55 in an antibody dose-dependent manner
subcutaneous tumor growth [2]: strongly suppressed
weight loss [2]: suppressive activity against weight loss was also exhibited
proliferative capacity of tumor cells ([3]; 3 days): strongly suppressed
invasive capacity of tumor cells ([3]; Matrigel-coated transwell, 4 hours): strongly suppressed
growth of 4T1 subcutaneous tumor [4]: significantly suppressed
